{
  "source": "the DeepSol protein solubility set",
  "data": [
    {"test": "soluble on expression in E. coli; label from the status in PepcDB or PDB records", "values": [
      {"sequence": "MSLTGREKNPSLTAKELEGGLLIVDEMSMVDTWLANTLLKAIPTNMQVIFVGDKDQLPSVGPGQVLHDLLQINEIPKCELNEIYRQGDGSSIIPLAHEIKEGKLPADFQKNQKDRSFFASDIGHIEEYIRQIVTKAKAKGFTPQDIQVLAPMYRGAAGIDALNKMMQEIFNPNDGKKKEVKWNDTVYRIGDKVLQLVNTPELNVFNGDMGEIVGITLAKDSEDKVDELVLQFDNNEVTYKRNEWNKITLSYCCSIHKAQGSEFRMVLLPMVHQYSRMLQRNLLYTAVTRSKELLILLGEVSAFETCVKNESASRMTMLKERIVNAEQEGHHHHHH", "soluble on expression in E. coli": "not soluble"},
      {"sequence": "MHERLNFPKVELHLHLDGAVRFDTLIDLSQQKGIPLAGAKTVEELKKVLVTHEPANLSKVLEAFEIFLPVIRGDLAAIERVAYELCEDQHNNGVVYFEGRYSPHLLLCNDYPEVTAAHVVAAVKKGFDRGEKQFGIKARSILCCIRGLDKKFPQLILDLATDLKQLGVVAIDVAGSAHGADEQYEPEVVAAFQEAHKRGIHRTVHAGESGGPKEVIKAIEDMYAERIGHGYRVMRDEEMYLEHFVNSKNVHLEACPYSSVMTGAVPLDWKNHPIARWAKDDVNFSVSRDDPTCFDNSMLSELTLVHKQIGLDVHQLWKAQLNAARSCFLPEDEKAELVKRVEAGEPPRP", "soluble on expression in E. coli": "not soluble"},
      {"sequence": "MSLDTEAVLAAVEDAPVRETLDSMVASLKSHEDSEFAGAIATFTGRVRERDDPDDTPTQHLEFERYDTVAEQRMATIREQLCERDGVYDVRMHHRTGVVPAGDDVVHVVVLAGHRGDAFRAVSDGIDRLKDEVPLFKKEVTVDDAFWRHDEGHHHHHH", "soluble on expression in E. coli": "soluble"},
      {"sequence": "AEESSKAVKYYTLEEIQKHNNSKSTWLILHYKVYDLTKFLEEHPGGEEVLREQAGGDATENFEDVGHSTDARELSKTFIIGELHPDDRSKITKPSESIITTIDS", "soluble on expression in E. coli": "soluble"},
      {"sequence": "QSPAEIASFSPRPSLADSKAVLNQAVADLSVAHSILHQVHWYMRGRGFMIWHPKMDEYMEEIDGYLDEMSERLITLGGAPFSTLKEFSENSQLKEVLGDYNVTIEEQLARVVEVFRYLAALFQKGFDVSDEEGDSVTNDIFNVAKASIEKHIWMLQAELGQAPKL", "soluble on expression in E. coli": "soluble"},
      {"sequence": "MPGQPFGVYLHVPFCLTRCGYCDFNTYTPAQLGGVSPDRWLLALRAELELAAAKLDAPTVHTVYVGGGTPSLLGGERLATLLDMVRDHFVLAPDAEVSTEANPESTWPEFFATIRAAGYTRVSLGMQSVAPRVLATLDRVHSPGRAAAAATEAIAEGFTHVNLDLIYGTPGESDDDLVRSVDAAVQAGVDHVSAYALVVEHGTALARRVRRGELAAPDDDVLAHRYELVDARLSAAGFAWYEVSNWCRPGGECRHNLGYWDGGQWWGAGPGAHGYIGVTRWWNVKHPNTYAEILAGATLPVAGFEQLGADALHTEDVLLKVRLRQGLPLARLGAAERERAEAVLADGLLDYHGDRLVLTGRGRLLADAVVRTLLG", "soluble on expression in E. coli": "not soluble"},
      {"sequence": "MSLSRLPVIVGFGGYNAAGRSSFHHGFRRMVIESMDPQARQETLAGLAVMMKLVKAEGGRYLAEDGTPLSPEDIERRYAERIFASTLVRRIEPQYLDPDAVHWHKVLEATPAEGQALTFKASPKQLPEPLPGNWSVTPAADGEVLVSIHERCEFKVDSYRPLTVKSAGQLPTGFEPGELYNSRFHPRGLQMSVVAATDAIRSTGIDWQTIVDNVQPDEIAVFSGSIMSQLDDNGFGGLMQSRLKGHRVSAKQLPLGFNSMPTDFINAYVLGSVGMTGSITGACATFLYNLQKGIDVITSGQARVVIVGNSEAPILPECIEGYSAMGALATEEGLRLIEGRDEVDFRRASRPFGENCGFTLAESSQYVVLMDDELALRLGADIHGAVTDVFINADGFKKSISAPGPGNYLTVAKAVASAVQIVGLDTVRHASFVHAHGSSTPANRVTESEILDRVASAFGIDGWPVTAVKAYVGHSLATASADQLISALGTFKYGILPGIKTIDKVADDVHQQRLSISNRDVRQDKPLEVCFINSKGFGGNNASGVVLSPRIAEKMLRRRHGEAAFAAYVEKREQTRGAARAYDQRALQGDLEIIYNFGQDLIDEQAIEVSAEQVTVPGFSQPLVYKKDARFSDMLDEGHHHHHH", "soluble on expression in E. coli": "soluble"},
      {"sequence": "GMTSNGQQGKPNLPEKDNLPRELGTQRINSPIARMGMFGAKTTGDTSGYGRLRVYRHVPAAAQRPYSDPSDPRTAYFDEVADALERSLKEIGTPYDTAISRVVVDRGEITFHVQREHLLDVATRLRDDPALRFELCLGVTGVHYPEDEGNELHAVYALRSITHNYEIRLEVSCPDSDPHIPSIVSVYPTNDWHEREAWDFFGIIFDGHPALTR", "soluble on expression in E. coli": "soluble"},
      {"sequence": "MSRNQIYITQEQFDFFCQTQRPYEGFVEGVGYAFVHRGFVNPHANRPTNPFRQTKGYVLPFKQQLIEVSPDLIANSLKCNKTTDTPQEAPERDSRYLGERFYTKDGRYVYIGTMSGGWVCYDRSGNRILEQLPEIIVYSSKEPGRSIIGTGKD", "soluble on expression in E. coli": "not soluble"},
      {"sequence": "MCIIKPMDDVVKFIHEVGSLKLTPRSGWLKLGIRLPESVAEHSFRAAIIAFILALKSGESVEKACKAATAALFHDLHEARTMDLHKIARRYVSCDEEGAREEQLSWMESKPDFSDVEVYVSDADKLELAFQGVEYSQQVSYAIRFAENVELKTDAAKEIYRVLMERKNPVWWR", "soluble on expression in E. coli": "soluble"},
      {"sequence": "MGSDKIHHHHHHVQQSQIMEDKIISAVRTFASSINSGGKVVADMSELIEVTSQLPLSSFDYWERFIRSEFSTALRESNSPKWKVWSKPKELVTWLDLISWDGYKREKALRALSGAAPNTFFFSLAVRRLNDWVPQVRKAAREKLPEIAKSTVPECVVDALCVALSNWNSWGRIEDADKEVLLKILCEKEIAKSLRSKLIFSASGPMPSLFSQLGRTPILDGQIEEIAKSAIQPSVRAKAYRSLFEGRVIWIEGRKWVWTDIRYCEGRLKPIVGERKLEIETPLIDLLKRSSEDRSSIVRRVSAEILIRELGNLGVKAKEFAERFALDSSQAVSERGDFALKKLDEAERANAS", "soluble on expression in E. coli": "not soluble"},
      {"sequence": "MNRMDNDLLAIQEARILIENAREAQKALATFSQEKLDRIVERMAGEVVKYARELAMMSHEETGFGKWQDKYIKNIFASDFLCKKIRKMKVVGIIAEDKENQTLDVGVPVGVIVALLPSTNPVSTAIYKTLIAIKSGNAIVFSPHPKAKKTTRRVLEILVRTAEASGLPCGAIGYQRTQALEGTLGLMNHKDTALIIVTGVPKLVKAAYAAGKPTIYGGPGNGPAFIERSADIKQAVADIITSRTFDHGIVSASEQSVVAEECIADEVRQELRGNGGYFLSEEEAEQLGKLFLRPDGSVNPDIVGKSAVELARKIGITVSENTKVLISEQKFVSPTNPYAKEKLCPVLAFYVEKDWFNACEKCIELLLNDGRGHTLVIHSRNEQVIREFALKKPVSRVLVNTPATLGGIGGTTNLFPALTLGCGAVGGGFTSDNVSPLNLINIRKVGYGVRKLEDITCGVQAESVGSSESAGLTRLTGLNGSLCPGPGYPKERTQDLNELLETLLEQLLPYRNA", "soluble on expression in E. coli": "not soluble"},
      {"sequence": "MSLNTLKEVNKIIQYLNNIHNEPIGNQARVLCGKDAAKHLFLVASGADSLSIGEYEILSQIRSTIDMFKKLGFSGKYLQIFFERAIKVGRKVREETSISKGKVGIYSLAIDEAKKRFNDFYDRRILVIGAGEMAQKITSMLHNEGAKDVTIMNRTIEKAKQLALKFGYNYEKLDLDKLGNFDVAFISIYHENLRLENKWNTLIVDITVPPLFTGNNVITLEELERISNLNFKAREEELAKINKLVEDGINELLYDYKKEIYTEFMSKIMKRIETIRENEILRAYKELEKEGHHHHHH", "soluble on expression in E. coli": "not soluble"},
      {"sequence": "MVAQSKILLYYKFTPIADPKAMMLWQRDMCELLGLKGRILISEHGINGTVGGDMDACKRYVRKMREYPGFRGTEFKWSDGGAEDFPKLSVKVRDEIVAFGAPGELKVDEKGVIGGGVHLKPEEVNKLVEERGDDVVFFDGRNAMEAQIGKFKNAVVPDVRTTHDFIRELESGKYDWMKDKPVVSYCTGGIRCEILSSLMKNRGFKEIYQIDGGIVRYGEKYGNDGLWEGSLYVFDRRMHMEFGNGVQDPGFIQLGHCVQCGAPTNKFEHCINEDECRELVLMCPDCYENPATRNCGREHCKEVAAEAAAAAAVLEHHHHHH", "soluble on expression in E. coli": "soluble"}
    ]}
  ]
}
